The source of these data is publication PMC3202562, “A Broad Set of Different Llama Antibodies Specific for a 16 kDa Heat Shock Protein of Mycobacterium tuberculosis” (PLoS ONE, 2011).

The target of assay [1] is T1, purified recombinant 16 kDa heat shock protein of M. tuberculosis (Mycobacterium tuberculosis, UniProt P9WMK1).
T1 construct: also called recombinant 16 kDa protein; recombinant 16 kDa hsp; source: E. coli BL21-AI, purified (urea lysis, Ni-NTA); not shown: AVI-tag, C-terminal, kept; His6, C-terminal, kept
T1 sequence (P9WMK1 whole entry): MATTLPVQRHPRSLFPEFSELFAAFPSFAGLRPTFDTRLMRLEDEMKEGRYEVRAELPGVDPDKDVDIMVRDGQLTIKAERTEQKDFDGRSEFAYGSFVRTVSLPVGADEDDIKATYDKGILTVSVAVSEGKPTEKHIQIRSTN
Briefly: far-Western, overlay or dot blot. Particulars: both partners purified.

Assay [2] concerns the target T1, purified recombinant 16 kDa heat shock ….
Assay [3] deals with 16 kDa heat shock protein of M. tuberculosis, in M. tuberculosis lysate (Mycobacterium tuberculosis (lysates of …, UniProt P9WMK1)).
Chain of 16 kDa heat shock protein of M. tuberculosis, in M. tuberculosis lysate (Mycobacterium tuberculosis (P9WMK1 whole entry): as above

Read-outs that look alike come from different tables or passages of the source.

B1: VHH A-28 (VHH)
VHH: QVQLQDSGGGLVQAGDSLRLSCTYSGRSFSNHAMGWFRQAPGKERGFVAAIGWINGGTYYADSVKGRFIISRDNDKNTLYLQMNNLKPEDTAVYYCAARNALRSISFNLSEYAYWGQGTQVTVSS
notes: source: E. coli BL21-AI, purified (urea lysis, Ni-NTA)
Turning to B1, the binding result in assay [1] is “binds”.

B2: A-93 (VHH)
VHH: QVQLQESGGGLVQAGGSLRLSCAASRRLYSSYSLGWFRQAPGKEREFVAALGWIANGTYYADSAKGRFTISRGNAMVFLQMNSLKSEDTAVYYCAARLGSVREAPREYTYWGQGTQVTVSS
Take B2: the binding result in assay [2] and in assay [3] was “binds” in each case.
